Substrate in series [1]: C[C@H](NC(=O)CCC(=O)O)C(=O)N[C@@H](C)C(=O)N1CCC[C@H]1C(=O)N[C@@H](Cc1ccccc1)C(=O)Nc1ccc([N+](=O)[O-])cc1
The series is described as follows: Km and kcat of enzyme, Table 1. The series is classed as biochemical. The settings on record: other: 0.05M sodium phosphate buffer at pH 8 containing 10% methanol. As to the method:
(§1) The yield of the active enzyme was determined by comparison of the relative activity of the native trypsin and the trypsin-polymer conjugate for N-succinyl-Ala-Ala-Pro-Phe p-nitroanilide as the substrate in 0.05M sodium phosphate buffer at pH 8 containing 10% methanol.
The procedure of EXAMPLE 8 (a) (i) was repeated in every essential detail except that BPN'-subtilisin was used instead of trypsin.

Substrate in series [2]: C[C@H](NC(=O)CCC(=O)O)C(=O)N[C@@H](C)C(=O)N1CCC[C@H]1C(=O)N[C@@H](Cc1ccccc1)C(=O)Nc1ccc([N+](=O)[O-])cc1
The series is described as follows: Km and kcat of enzyme, Table 1. In kind it is biochemical. The settings on record: other: 0.05M sodium phosphate buffer at pH 8 containing 10% methanol. The protocol: as §1
The procedure of EXAMPLE 8 (a) (i) was repeated in every essential detail except that Carlsberg-subtilisin was used instead of trypsin.
This is another data set of the same source.

B1: BPN'-subtilisin (native) (Bacillus amyloliquefaciens) (protein)
chain: AQSVPYGVSQIKAPALHSQGYTGSNVKVAVIDSGIDSSHPDLKVAGGASMVPSETNPFQDNNSHGTHVAGTVAALNNSIGVLGVAPSASLYAVKVLGADGSGQYSWIINGIEWAIANNMDVINMSLGGPSGSAALKAAVDKAVASGVVVVAAAGNEGTSGSSSTVGYPGKYPSVIAVGAVDSSNQRASFSSVGPELDVMAPGVSIQSTLPGNKYGAYNGTSMASPHVAGAAALILSKHPNWTNTQVRSSLENTTTKLGDSFYYGKGLINVQAAAQ
In general, Km refers to the concentration of substrate that gives half-maximal velocity. The kcat is the number of substrate molecules converted per active site and unit of time at saturation. Regarding B1, in series [1], the Km is 240 µM and the kcat amounted to 83 s⁻¹.

B2: Carlsberg-subtilisin (native) (Bacillus licheniformis) (protein)
chain: AQTVPYGIPLIKADKVQAQGFKGANVKVAVLDTGIQASHPDLNVVGGASFVAGEAYNTDGNGHGTHVAGTVAALDNTTGVLGVAPSVSLYAVKVLNSSGSGSYSGIVSGIEWATTNGMDVINMSLGGASGSTAMKQAVDNAYAKGVVVVAAAGNSGSSGNTNTIGYPAKYDSVIAVGAVDSNSNRASFSSVGAELEVMAPGAGVYSTYPTNTYATLNGTSMASPHVAGAAALILSKHPNLSASQVRNRLSSTATYLGSSFYYGKGLINVEAAAQ
Take B2: in series [2], the Km is 251 µM and the kcat was 420 s⁻¹.

(Values after patent publication US5492821A, “Stabilized polyacrylic saccharide protein conjugates” (Cargill, Inc., priority 1991, dated 1996).)
